Test results: patent US20250262210A1 (TRUSTEES OF COLUMBIA UNIVERSITY IN THE CITY OF NEW YORK, published 2025)

Experiments:
Assay in all cases: IP/MS, LZTR1 wild type-FLAG, U87
KIAA1468 = target: T1, KIAA1468 (human, UniProt Q9P260 2-1216, limits assumed)
T1 sequence (looked up): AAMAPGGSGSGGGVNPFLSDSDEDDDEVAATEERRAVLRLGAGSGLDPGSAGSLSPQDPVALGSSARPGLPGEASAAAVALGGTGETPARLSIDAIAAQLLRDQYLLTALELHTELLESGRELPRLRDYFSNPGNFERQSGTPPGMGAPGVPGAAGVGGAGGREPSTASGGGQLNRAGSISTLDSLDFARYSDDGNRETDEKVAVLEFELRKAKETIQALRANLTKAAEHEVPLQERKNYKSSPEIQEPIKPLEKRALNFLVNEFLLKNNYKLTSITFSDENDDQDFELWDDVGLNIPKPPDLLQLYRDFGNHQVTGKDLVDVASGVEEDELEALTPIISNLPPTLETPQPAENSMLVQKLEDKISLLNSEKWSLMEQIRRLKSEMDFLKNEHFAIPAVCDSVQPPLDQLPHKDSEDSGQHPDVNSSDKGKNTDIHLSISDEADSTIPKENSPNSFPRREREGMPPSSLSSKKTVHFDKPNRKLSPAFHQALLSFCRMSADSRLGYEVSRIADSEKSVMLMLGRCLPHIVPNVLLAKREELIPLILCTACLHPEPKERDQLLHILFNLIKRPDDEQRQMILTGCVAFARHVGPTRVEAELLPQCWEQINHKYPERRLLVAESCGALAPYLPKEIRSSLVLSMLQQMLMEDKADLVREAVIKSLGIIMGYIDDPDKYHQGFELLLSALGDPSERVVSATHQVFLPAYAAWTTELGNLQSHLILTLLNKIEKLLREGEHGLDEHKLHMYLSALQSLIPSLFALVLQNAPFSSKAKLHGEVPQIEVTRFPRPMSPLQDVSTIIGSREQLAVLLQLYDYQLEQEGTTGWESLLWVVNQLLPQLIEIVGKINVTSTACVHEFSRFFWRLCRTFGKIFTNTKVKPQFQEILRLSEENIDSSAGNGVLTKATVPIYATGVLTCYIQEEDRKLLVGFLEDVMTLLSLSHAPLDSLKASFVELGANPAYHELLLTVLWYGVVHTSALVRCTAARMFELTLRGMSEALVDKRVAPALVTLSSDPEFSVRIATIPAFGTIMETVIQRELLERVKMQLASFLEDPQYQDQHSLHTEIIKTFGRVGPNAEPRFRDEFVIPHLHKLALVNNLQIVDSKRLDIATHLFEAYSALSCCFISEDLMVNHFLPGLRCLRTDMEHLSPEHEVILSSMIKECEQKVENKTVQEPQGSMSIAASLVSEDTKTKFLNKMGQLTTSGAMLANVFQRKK
Summary of the method: (§1)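 Extracted peptides in 3% acetonitrile/0.1% formic acid ran on a 50 cm C18 column into an Orbitrap Fusion, with MaxQuant identification and spectral counting.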

CTDP1 = target: T2, CTDP1 (human, UniProt Q9Y5B0 1-961, limits assumed)
T2 sequence (looked up): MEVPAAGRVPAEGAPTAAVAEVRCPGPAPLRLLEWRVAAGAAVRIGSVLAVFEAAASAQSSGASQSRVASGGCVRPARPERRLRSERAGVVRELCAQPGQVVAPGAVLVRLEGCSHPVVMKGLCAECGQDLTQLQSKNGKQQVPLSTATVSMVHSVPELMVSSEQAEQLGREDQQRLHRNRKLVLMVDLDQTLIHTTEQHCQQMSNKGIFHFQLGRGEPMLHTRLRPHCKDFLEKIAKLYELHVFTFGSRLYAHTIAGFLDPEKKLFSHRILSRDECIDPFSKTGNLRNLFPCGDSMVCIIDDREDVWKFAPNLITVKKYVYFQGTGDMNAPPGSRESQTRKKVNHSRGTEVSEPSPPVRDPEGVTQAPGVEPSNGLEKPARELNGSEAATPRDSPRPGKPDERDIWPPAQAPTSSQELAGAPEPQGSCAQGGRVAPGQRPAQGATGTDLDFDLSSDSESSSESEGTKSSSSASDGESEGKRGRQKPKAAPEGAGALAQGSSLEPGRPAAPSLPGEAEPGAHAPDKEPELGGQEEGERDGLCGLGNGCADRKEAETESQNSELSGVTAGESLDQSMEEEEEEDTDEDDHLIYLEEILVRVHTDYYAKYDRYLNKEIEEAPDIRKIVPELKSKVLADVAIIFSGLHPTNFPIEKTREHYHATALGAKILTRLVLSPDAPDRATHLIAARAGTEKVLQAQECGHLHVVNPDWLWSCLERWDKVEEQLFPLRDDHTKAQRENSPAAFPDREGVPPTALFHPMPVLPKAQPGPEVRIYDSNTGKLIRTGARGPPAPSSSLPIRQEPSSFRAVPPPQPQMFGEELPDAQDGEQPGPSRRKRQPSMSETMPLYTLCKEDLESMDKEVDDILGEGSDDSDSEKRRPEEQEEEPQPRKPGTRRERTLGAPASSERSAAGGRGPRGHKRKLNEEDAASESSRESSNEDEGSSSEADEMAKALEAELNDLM
Summary of the method: as §1

PARP14 = PARP14 (human, UniProt Q460N5 1-1801, limits assumed)
Summary of the method: as §1

CRYBG1 = CRYBG1 (human, UniProt Q9Y4K1 1-2131, limits assumed)
Summary of the method: as §1

Measured: binding result

Chain of PARP14 (Q460N5 whole entry): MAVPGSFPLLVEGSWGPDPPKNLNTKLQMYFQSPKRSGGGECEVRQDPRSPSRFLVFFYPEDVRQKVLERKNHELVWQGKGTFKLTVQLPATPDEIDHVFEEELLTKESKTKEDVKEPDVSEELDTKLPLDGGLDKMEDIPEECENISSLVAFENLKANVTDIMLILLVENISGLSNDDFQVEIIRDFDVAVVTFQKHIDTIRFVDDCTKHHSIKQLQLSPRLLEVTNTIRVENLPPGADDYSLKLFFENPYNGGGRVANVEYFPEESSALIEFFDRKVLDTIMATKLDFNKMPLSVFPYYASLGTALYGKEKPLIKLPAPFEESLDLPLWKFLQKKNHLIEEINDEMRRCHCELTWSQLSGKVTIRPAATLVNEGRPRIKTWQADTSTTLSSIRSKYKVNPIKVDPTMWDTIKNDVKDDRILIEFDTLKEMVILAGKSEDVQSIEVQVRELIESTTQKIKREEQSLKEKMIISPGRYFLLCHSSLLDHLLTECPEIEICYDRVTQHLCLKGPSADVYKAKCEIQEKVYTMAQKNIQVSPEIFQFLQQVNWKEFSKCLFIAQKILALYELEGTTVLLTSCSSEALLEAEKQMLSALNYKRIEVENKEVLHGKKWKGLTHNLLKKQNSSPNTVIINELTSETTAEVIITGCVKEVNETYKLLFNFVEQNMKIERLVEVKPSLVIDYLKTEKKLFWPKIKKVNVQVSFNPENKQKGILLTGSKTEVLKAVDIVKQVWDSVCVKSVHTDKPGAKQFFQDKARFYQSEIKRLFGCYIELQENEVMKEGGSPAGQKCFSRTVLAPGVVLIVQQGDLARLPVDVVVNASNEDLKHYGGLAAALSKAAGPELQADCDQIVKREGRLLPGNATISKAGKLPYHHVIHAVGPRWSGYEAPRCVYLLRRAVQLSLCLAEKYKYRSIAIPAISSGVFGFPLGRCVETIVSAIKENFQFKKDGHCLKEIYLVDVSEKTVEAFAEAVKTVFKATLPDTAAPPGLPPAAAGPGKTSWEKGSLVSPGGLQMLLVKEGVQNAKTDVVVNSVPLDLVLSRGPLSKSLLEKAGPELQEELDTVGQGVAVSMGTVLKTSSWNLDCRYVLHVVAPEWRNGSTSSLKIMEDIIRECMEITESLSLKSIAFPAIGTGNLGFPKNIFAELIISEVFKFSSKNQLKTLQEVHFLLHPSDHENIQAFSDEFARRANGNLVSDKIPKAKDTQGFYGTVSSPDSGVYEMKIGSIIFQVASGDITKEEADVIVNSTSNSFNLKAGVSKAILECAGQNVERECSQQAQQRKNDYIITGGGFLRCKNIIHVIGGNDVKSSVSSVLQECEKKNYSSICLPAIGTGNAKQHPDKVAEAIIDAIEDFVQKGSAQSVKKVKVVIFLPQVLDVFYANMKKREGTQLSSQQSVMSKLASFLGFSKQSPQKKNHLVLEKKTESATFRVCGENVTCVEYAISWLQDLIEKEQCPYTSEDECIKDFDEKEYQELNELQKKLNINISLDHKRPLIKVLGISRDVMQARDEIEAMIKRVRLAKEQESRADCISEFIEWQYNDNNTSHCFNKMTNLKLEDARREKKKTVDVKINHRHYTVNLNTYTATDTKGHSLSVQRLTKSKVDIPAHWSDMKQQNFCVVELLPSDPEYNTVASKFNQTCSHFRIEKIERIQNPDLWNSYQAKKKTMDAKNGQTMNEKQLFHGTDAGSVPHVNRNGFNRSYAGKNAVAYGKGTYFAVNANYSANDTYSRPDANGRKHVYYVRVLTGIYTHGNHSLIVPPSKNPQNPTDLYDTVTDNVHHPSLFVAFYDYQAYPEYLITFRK
Chain of CRYBG1 (Q9Y4K1 whole entry): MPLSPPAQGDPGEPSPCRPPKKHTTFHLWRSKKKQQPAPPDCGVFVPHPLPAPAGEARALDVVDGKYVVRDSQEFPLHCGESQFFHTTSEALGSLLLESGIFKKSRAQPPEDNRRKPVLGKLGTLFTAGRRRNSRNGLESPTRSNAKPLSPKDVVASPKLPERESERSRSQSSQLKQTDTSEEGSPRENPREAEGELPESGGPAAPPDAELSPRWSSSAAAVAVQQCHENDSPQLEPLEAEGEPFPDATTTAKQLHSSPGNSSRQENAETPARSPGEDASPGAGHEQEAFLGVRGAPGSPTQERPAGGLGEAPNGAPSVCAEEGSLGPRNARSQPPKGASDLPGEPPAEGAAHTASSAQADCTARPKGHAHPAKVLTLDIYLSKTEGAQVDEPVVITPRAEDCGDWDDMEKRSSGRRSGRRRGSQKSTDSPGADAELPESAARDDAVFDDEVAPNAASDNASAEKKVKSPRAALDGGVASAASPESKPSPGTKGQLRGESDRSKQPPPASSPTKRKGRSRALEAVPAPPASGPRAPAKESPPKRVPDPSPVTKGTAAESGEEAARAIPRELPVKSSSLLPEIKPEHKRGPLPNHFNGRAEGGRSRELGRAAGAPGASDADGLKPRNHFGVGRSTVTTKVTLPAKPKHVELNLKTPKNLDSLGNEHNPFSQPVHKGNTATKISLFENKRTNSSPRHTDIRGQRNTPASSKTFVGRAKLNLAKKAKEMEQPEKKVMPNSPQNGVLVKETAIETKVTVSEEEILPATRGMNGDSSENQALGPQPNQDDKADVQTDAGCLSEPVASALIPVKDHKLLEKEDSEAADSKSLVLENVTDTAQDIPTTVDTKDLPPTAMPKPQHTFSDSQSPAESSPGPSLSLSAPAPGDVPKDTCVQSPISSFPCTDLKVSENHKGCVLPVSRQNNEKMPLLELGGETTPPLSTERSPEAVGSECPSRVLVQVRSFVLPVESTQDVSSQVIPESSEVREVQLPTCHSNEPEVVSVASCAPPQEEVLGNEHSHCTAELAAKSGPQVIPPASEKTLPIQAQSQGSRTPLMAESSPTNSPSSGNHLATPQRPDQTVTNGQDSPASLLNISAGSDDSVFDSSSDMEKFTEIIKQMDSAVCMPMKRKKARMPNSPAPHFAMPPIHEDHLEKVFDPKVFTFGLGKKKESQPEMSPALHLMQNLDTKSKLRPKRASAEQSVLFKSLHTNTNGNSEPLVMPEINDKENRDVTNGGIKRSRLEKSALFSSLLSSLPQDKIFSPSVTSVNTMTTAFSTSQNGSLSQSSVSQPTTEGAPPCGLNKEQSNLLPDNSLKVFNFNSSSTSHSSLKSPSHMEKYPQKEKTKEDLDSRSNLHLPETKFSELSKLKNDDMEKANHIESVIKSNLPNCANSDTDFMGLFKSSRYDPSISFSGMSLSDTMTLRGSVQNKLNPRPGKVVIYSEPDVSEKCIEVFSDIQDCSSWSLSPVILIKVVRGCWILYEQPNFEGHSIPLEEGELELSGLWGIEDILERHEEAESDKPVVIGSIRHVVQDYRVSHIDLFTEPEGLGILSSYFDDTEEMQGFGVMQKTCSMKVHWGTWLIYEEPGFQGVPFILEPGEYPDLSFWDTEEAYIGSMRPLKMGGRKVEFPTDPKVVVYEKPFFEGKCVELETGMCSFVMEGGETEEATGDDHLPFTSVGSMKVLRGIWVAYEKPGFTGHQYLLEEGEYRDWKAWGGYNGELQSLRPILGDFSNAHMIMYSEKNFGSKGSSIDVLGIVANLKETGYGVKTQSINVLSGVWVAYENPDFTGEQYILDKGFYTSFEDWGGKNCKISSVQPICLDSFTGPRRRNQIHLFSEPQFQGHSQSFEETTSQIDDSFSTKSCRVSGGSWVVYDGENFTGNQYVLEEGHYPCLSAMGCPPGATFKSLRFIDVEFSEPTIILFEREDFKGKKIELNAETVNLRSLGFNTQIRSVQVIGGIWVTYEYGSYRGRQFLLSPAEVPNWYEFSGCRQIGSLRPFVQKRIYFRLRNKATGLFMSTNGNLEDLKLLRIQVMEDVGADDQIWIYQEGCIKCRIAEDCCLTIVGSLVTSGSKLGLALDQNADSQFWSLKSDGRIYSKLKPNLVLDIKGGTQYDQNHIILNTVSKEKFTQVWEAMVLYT

B1: LZTR1-FLAG (other, human, UniProt Q8N653 1-840, looked up)
chain: MAGPGSTGGQIGAAALAGGARSKVAPSVDFDHSCSDSVEYLTLNFGPFETVHRWRRLPPCDEFVGARRSKHTVVAYKDAIYVFGGDNGKTMLNDLLRFDVKDCSWCRAFTTGTPPAPRYHHSAVVYGSSMFVFGGYTGDIYSNSNLKNKNDLFEYKFATGQWTEWKIEGRLPVARSAHGATVYSDKLWIFAGYDGNARLNDMWTIGLQDRELTCWEEVAQSGEIPPSCCNFPVAVCRDKMFVFSGQSGAKITNNLFQFEFKDKTWTRIPTEHLLRGSPPPPQRRYGHTMVAFDRHLYVFGGAADNTLPNELHCYDVDFQTWEVVQPSSDSEVGGAEVPERACASEEVPTLTYEERVGFKKSRDVFGLDFGTTSAKQPTQPASELPSGRLFHAAAVISDAMYIFGGTVDNNIRSGEMYRFQFSCYPKCTLHEDYGRLWESRQFCDVEFVLGEKEECVQGHVAIVTARSRWLRRKITQARERLAQKLEQEAAPVPREAPGVAAGGARPPLLHVAIREAEARPFEVLMQFLYTDKIKYPRKGHVEDVLLIMDVYKLALSFQLCRLEQLCRQYIEASVDLQNVLVVCESAARLQLSQLKEHCLNFVVKESHFNQVIMMKEFERLSSPLIVEIVRRKQQPPPRTPLDQPVDIGTSLIQDMKAYLEGAGAEFCDITLLLDGHPRPAHKAILAARSSYFEAMFRSFMPEDGQVNISIGEMVPSRQAFESMLRYIYYGEVNMPPEDSLYLFAAPYYYGFYNNRLQAYCKQNLEMNVTVQNVLQILEAADKTQALDMKRHCLHIIVHQFTKVSKLPTLRSLSQQLLLDIIDSLASHISDKQCAELGADI
notes: Expressed in HEK 293T, HeLa or U87 cells; used as cell lysate; also called LZTR1 wild type-FLAG; LZTR1 WT; not shown: FLAG tag at the C-terminus
binds: all assays above
